B1: Galectin-8 (Homo sapiens), O00214 (parent)
chain: MMLSLNNLQNIIYNPVIPFVGTIPDQLDPGTLIVIRGHVPSDADRFQVDLQNGSSMKPRADVAFHFNPRFKRAGCIVCNTLINEKWGREEITYDTPFKREKSFEIVIMVLKDKFQVAVNGKHTLLYGHRIGPEKIDTLGIYGKVNIHSIGFSFSSDLQSTQASSLELTEISRENVPKSGTPQLRLPFAARLNTPMGPGRTVVVKGEVNANAKSFNVDLLAGKSKDIALHLNPRLNIKAFVRNSFLQESWGEEERNITSFPFSPGMYFEMIIYCDVREFKVAVNGVHSLEYKHRFKELSSIDTLEINGDIHLLEVRSW
B2: Consortin (Homo sapiens), Q6PJW8 (parent)
chain: MDDSDTPTYYLQIEPQDGCHPGDSVERSVTCLPSASDENENQLDGDGHEHLTSSDSAMGKPQVSEQDSLNNNESCTLSCEVAAGENLQNTLCEASRDEQAFLGKDKKIPGKRSPRSKKGTAKKIPPGLFSGDIAPLMQEKVLSAVTYAVDDEEAAEVNANEQPEAPKLVLQSLFSLIRGEVEQLDSRALPLCLHQIAESYFQEEDYEKAMKFIQLERLYHEQLLANLSAIQEQWETKWKTVQPHTVTALRNSEKGFNGEDFERLTKICATHQDPLLSKHKIAAVEKSQERKCSTQLLVSEDPKEGGATTKESESKTCLGTESSKESQHTVEPLGSSPCCHQMDVQTDSPSLSVTAGKDHMEELLCSAEATLALHTQSSETAGSPSGPDSSEDACEDDSRLQLAQTEACQDVARIEGIAEDPKVFLSSKSKTEPLISPGCDRIPPALISEGKYSQAQRKELRLPLRDASEALPTDQLENNELNELQQPDLTDSDGKSPQAQADSDGSENVLCGNNQISDLGILLPEVCMAPEEKGDKDDQLNKETEDYLNSLLEGCLKDTEDSLSYEDNQDDDSDLLQDLSPEEASYSLQENLPSDESCLSLDDLAKRIEIAEVVPTEGLVSILKKRNDTVGDHPAQMQHKPSKRRVRFQEIDDSLDQDEVGGGSCILLVLLCIATVFLSVGGTALYCTFGDMESPVCTDFADNMDFYYTKLLQGVAELKHWIYLS
B3: MOB kinase activator 3C (Homo sapiens), Q70IA8 (parent)
chain: MALCLKQVFAKDKTFRPRKRFEPGTQRFELYKKAQASLKSGLDLRSVVRLPPGENIDDWIAVHVVDFFNRINLIYGTMAERCSETSCPVMAGGPRYEYRWQDERQYRRPAKLSAPRYMALLMDWIEGLINDEEVFPTRVGVPFPKNFQQVCTKILTRLFRVFVHVYIHHFDSILSMGAEAHVNTCYKHFYYFIREFSLVDQRELEPLREMTERICH
partner: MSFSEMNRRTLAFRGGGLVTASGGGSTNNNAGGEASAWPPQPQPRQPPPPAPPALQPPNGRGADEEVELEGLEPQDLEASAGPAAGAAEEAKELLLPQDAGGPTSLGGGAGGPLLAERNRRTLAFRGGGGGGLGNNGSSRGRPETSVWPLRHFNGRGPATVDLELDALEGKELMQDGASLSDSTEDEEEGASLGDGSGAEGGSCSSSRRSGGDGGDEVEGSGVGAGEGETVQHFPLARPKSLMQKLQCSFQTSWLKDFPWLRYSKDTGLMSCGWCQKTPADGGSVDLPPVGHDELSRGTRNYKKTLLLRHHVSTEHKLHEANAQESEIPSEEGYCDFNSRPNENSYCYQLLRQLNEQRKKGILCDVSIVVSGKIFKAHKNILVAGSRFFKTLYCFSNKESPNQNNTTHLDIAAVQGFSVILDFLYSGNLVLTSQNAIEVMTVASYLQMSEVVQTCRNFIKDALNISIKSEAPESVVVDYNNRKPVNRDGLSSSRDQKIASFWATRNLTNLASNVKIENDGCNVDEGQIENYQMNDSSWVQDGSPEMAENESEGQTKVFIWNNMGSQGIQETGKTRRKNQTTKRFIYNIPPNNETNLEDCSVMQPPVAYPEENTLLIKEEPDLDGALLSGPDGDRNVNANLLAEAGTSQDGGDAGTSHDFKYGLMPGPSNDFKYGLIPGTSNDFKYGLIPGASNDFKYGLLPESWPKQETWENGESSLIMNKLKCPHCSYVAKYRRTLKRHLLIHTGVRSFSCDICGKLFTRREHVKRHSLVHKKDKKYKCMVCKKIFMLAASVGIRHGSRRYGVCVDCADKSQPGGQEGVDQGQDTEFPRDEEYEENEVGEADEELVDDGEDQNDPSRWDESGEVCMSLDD
B4: MOB kinase activator 3C (Homo sapiens), Q70IA8 (parent)
chain: B3 chain
partner: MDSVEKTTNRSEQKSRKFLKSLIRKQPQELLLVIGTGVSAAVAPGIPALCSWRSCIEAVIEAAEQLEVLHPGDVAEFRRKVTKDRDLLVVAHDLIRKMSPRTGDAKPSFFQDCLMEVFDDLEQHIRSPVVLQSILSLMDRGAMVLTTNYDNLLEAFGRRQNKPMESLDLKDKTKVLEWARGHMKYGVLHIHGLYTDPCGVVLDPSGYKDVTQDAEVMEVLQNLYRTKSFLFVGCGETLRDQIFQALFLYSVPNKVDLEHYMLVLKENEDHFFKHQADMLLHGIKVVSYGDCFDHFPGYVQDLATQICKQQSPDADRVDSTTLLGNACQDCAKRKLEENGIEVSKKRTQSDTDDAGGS
B5: Ribosome production factor 1 (Homo sapiens), Q9H9Y2 (parent)
chain: MAKAGDKSSSSGKKSLKRKAAAEELQEAAGAGDGATENGVQPPKAAAFPPGFSISEIKNKQRRHLMFTRWKQQQRKEKLAAKKKLKKEREALGDKAPPKPVPKTIDNQRVYDETTVDPNDEEVAYDEATDEFASYFNKQTSPKILITTSDRPHGRTVRLCEQLSTVIPNSHVYYRRGLALKKIIPQCIARDFTDLIVINEDRKTPNGLILSHLPNGPTAHFKMSSVRLRKEIKRRGKDPTEHIPEIILNNFTTRLGHSIGRMFASLFPHNPQFIGRQVATFHNQRDYIFFRFHRYIFRSEKKVGIQELGPRFTLKLRSLQKGTFDSKYGEYEWVHKPREMDTSRRKFHL
partner: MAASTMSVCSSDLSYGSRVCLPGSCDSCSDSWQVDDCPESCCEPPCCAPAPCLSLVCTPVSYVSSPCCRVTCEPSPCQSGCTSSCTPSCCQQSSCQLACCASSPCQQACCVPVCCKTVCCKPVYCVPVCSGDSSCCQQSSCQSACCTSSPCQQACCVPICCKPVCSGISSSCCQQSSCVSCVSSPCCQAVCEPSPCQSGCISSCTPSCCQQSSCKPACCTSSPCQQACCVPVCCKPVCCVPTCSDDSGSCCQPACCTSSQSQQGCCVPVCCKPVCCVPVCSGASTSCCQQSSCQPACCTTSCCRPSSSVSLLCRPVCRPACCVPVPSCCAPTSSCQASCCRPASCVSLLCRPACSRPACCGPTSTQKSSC

Variants of: B1
Settings: with taxb1_human TAX1BP1, Q86VP1
taxb1_human TAX1BP1, Q86VP1, sequence (Q86VP1 whole entry): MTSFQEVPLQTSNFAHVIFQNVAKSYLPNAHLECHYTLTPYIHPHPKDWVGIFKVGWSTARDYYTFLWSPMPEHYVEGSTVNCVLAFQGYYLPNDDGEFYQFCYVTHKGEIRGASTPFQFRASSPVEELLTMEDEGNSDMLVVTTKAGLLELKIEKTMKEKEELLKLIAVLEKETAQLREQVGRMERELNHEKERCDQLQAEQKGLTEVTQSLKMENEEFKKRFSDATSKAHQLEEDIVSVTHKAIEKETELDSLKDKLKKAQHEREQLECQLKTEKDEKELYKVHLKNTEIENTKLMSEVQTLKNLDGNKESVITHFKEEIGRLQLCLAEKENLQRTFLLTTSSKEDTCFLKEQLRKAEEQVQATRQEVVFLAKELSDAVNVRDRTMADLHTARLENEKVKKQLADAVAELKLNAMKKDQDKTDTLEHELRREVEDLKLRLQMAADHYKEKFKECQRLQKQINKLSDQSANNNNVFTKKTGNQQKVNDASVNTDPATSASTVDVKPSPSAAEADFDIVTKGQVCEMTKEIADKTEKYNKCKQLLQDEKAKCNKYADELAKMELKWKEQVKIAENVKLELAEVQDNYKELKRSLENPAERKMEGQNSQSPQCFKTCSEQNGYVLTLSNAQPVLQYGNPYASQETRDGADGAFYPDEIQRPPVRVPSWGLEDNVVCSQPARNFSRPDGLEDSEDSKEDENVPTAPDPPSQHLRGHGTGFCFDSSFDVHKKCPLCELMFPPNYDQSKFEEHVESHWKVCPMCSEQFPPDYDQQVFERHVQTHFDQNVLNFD

Variant	effect of a mutation on the interaction
MMLSLNNLQNIIYNPVIPFVGTIPDQLDPGTLIVIRGHVPSDADRFQVDLQNGSSMKPRADVAFHFNPRFKRAGCIVCNTLINEKWGREEITYDTPFKREKSFEIVIMVLKDKFQVAVNGKHTLLYGHRIGPEKIDTLGIYGKVNIHSIGFSFSSDLQSTQASSLELTEISRENVPKSGTPQLRLPFAARLNTTMGPGRTVVVKGEVNANAKSFNVDLLAGKSKDIALHLNPRLNIKAFVRNSFLQESWGEEERNITSFPFSPGMYFEMIIYCDVREFKVAVNGVHSLEYKHRFKELSSIDTLEINGDIHLLEVRSW [P194T]	with no effect

Variants of: B2
Settings: with rop1a_human ROPN1, Q9HAT0
rop1a_human ROPN1, Q9HAT0, sequence (Q9HAT0 whole entry): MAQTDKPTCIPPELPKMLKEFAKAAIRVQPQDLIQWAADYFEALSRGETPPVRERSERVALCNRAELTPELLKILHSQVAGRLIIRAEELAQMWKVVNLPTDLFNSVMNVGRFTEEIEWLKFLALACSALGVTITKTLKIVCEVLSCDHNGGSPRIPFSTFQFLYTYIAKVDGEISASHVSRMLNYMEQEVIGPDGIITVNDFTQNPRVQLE

Variant	effect of a mutation on the interaction
V25M	disrupting interaction strength

Variants of: B3
Settings: with zbt10_human ZBTB10, Q96DT7

Variant	effect of a mutation on the interaction
MALCLKQVFAKDKTFRPRKRFEPGTQRFELYKKAQASLKSGLDLRSVVRLPPGENIDDWIAVHVVDFFNRINLIYGTMAERCSETSCPVMAGGPRYEYRWQDERQYRRPAKLSAPRYMALLMDWIEGLINDEEVFPTRVGVPFPKNFQQVCTKILTRLFRVFVHVYIHHFDSFLSMGAEAHVNTCYKHFYYFIREFSLVDQRELEPLREMTERICH [I173F]	disrupting interaction strength

Variants of: B4
Settings: with FAM118A

Variant	effect of a mutation on the interaction
MALCLKQVFAKDKTFRPRKRFEPGTQRFELYKKAQASLKSGLDLRSVVRLPPGENIDDWIAVHVVDFFNRINLIYGTMAERCSETSCPVMAGGPRYEYRWQDERQYRRPAKLSAPRYMALLMDWIEGLINDEEVFPTRVGVPFPKNFQQVCTKILTRLFRVFVHVYIHHFDSFLSMGAEAHVNTCYKHFYYFIREFSLVDQRELEPLREMTERICH [I173F]	disrupting interaction strength

Variants of: B5
Settings: with kr107_human KRTAP10-7, P60409

Variant	effect of a mutation on the interaction
MAKAGDKSSSSGKKSLKRKAAAEELQEAAGAGDGATENGVQPPKAAAFTPGFSISEIKNKQRRHLMFTRWKQQQRKEKLAAKKKLKKEREALGDKAPPKPVPKTIDNQRVYDETTVDPNDEEVAYDEATDEFASYFNKQTSPKILITTSDRPHGRTVRLCEQLSTVIPNSHVYYRRGLALKKIIPQCIARDFTDLIVINEDRKTPNGLILSHLPNGPTAHFKMSSVRLRKEIKRRGKDPTEHIPEIILNNFTTRLGHSIGRMFASLFPHNPQFIGRQVATFHNQRDYIFFRFHRYIFRSEKKVGIQELGPRFTLKLRSLQKGTFDSKYGEYEWVHKPREMDTSRRKFHL [P49T]	with no effect

Source: IntAct's records for PubMed 29892012
